Assay results: publication PMC3708822

How the values were obtained:
GST-RT (HIV-1 (NL4-3)) = assay: pull-down; 5 ug GST-tagged proteins on glutathione sepharose 4B beads incubated 1 hour at 4°C with normalized clarified bacterial lysates of 6His-IN in 20 mM HEPES-KOH pH 8.0, 5 mM DTT, 0.1% IGEPAL; washes with 200 mM NaCl, 0.5% IGEPAL; Western blot, densitometry relative to WT
GST-INI1 [1] = biological target: GST-INI1 (UniProt Q12824); assay: pull-down; 5 ug GST-INI1 on glutathione sepharose 4B beads incubated 1 hour at 4°C with clarified 293 T whole cell lysates normalized for YFP-IN levels; Western blot, densitometry, binding relative to YFP-WT
GST-SAP18 [2] = biological target: GST-SAP18 (UniProt O00422); assay: GST pull-down, Western blot quantitation; settings: 5μg of GST-tagged proteins were used for each pull-down reaction; parent: est. 1.0; read off a plot
GST-INI1 [3] = biological target: GST-INI1 (UniProt Q12824); assay: pull-down; in vitro binding of His6-IN with GST-INI1; data not shown
GST-SAP18 [4] = biological target: GST-SAP18 (UniProt O00422); assay: pull-down; 5 ug GST-tagged proteins on glutathione sepharose 4B beads incubated 1 hour at 4°C with normalized clarified bacterial lysates of 6His-IN in 20 mM HEPES-KOH pH 8.0, 5 mM DTT, 0.1% IGEPAL; washes with 200 mM NaCl, 0.5% IGEPAL; Western blot, densitometry relative to WT

Sequence of GST-SAP18 (O00422 whole entry): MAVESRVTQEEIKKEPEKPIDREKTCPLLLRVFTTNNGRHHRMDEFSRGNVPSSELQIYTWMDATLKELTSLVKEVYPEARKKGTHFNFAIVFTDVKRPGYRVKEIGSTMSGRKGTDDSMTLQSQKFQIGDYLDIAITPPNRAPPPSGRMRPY
Sequence of GST-INI1 (Q12824 whole entry): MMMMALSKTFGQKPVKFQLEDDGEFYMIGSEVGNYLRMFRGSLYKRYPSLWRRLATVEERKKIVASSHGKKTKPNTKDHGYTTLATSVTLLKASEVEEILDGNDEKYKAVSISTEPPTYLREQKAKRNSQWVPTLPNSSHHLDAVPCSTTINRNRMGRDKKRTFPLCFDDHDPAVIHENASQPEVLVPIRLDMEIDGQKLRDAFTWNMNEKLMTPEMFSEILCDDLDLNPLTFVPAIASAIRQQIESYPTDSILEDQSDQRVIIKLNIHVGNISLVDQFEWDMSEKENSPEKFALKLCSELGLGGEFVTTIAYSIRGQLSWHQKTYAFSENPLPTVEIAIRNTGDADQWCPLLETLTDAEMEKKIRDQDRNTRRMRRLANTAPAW

| Substance | % binding to INI1 relative to wild type (GST-INI1 [1]) [%] | ratio to parent (GST-SAP18 [2]) | further results |
| --- | --- | --- | --- |
| His6-tagged IN D202G (natural protein) | – | – | % RT binding compared to WT (GST-RT (HIV-1 (NL4-3))): 80% |
| YFP-IN S147G (natural protein) | 77 | – | – |
| His6-tagged WT IN K71R | – | 1.1 | – |
| His6-tagged WT IN S147G | – | 1 | – |
| YFP-IN H12Y (natural protein) | 20.6 | – | – |
| His6-tagged IN K111E (natural protein) | – | – | % binding compared to His6-WT (GST-INI1 [3]): 60% |
| YFP-WT IN (natural protein) | 100 | – | – |
| YFP-IN Q137R (natural protein) | 10 | – | – |
| YFP-IN K71R (natural protein) | 46 | – | – |
| His6-tagged WT IN D202G | – | 0.84 | – |
| His6-tagged WT IN K111E | – | 1.3 | – |
| YFP-IN D202G (natural protein) | 32 | – | – |
| His6-tagged IN Q137R (natural protein) | – | – | % RT binding compared to WT (GST-RT (HIV-1 (NL4-3))): 45%; fold decrease in binding relative to WT (GST-SAP18 [4]): 4 fold |
